Test results as given in PMC4299599, “Quantification of cytosolic interactions identifies Ede1 oligomers as key organizers of endocytosis” (Molecular Systems Biology, 2014).

Assays:
[1] = molecular target: T1, Sla2 (S. cerevisiae, UniProt P33338 1-968); assay: fluorescence cross-correlation spectroscopy (FCCS); in the cytoplasm of living yeast cells; first-named protein green (3myeGFP or 1myeGFP; eGFP for Don1), second red (3mCherry); self-interaction in diploid strains with one allele of each colour; apparent or effective KD (Kdeff) from single-cell measurements; only Kdeff values < 1000 nM are shown; values for self-interactions are upper limits; conditions: partners not purified
T1 construct: Sla2, S. cerevisiae; also called Sla2-3myeGFP; Sla2-3mCherry; source: chromosomally tagged at the endogenous locus, in the cytoplasm of living S. cerevisiae cells
T1 sequence (looked up): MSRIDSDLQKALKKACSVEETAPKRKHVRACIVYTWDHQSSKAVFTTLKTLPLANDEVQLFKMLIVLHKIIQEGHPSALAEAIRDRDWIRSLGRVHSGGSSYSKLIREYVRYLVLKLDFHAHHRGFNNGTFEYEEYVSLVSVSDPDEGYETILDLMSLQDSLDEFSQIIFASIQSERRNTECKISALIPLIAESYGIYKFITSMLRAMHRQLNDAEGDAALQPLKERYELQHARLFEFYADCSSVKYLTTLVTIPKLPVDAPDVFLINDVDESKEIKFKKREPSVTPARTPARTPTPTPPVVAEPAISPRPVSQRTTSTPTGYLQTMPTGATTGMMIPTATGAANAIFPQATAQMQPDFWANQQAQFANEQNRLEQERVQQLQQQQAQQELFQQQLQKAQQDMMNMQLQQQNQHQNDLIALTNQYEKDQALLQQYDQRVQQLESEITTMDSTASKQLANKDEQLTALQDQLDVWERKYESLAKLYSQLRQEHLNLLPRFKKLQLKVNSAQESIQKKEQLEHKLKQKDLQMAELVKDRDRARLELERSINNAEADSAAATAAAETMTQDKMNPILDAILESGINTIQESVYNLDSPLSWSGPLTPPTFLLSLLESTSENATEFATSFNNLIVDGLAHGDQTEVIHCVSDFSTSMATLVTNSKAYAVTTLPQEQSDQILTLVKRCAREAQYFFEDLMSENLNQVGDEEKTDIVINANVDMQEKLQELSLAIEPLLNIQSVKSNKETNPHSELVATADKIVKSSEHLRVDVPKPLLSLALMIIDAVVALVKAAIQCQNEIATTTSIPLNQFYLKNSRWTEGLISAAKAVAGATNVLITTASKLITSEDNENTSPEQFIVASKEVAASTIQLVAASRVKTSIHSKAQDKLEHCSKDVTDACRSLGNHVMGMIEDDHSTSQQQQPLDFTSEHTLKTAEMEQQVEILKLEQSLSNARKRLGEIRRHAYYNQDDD

[2] = molecular target: T2, Pan1 (S. cerevisiae, UniProt P32521 1-1480); assay: as above; conditions: partners not purified
T2 construct: Pan1, S. cerevisiae; also called Pan1-1myeGFP; Pan1-3mCherry; source: chromosomally tagged at the endogenous locus, in the cytoplasm of living S. cerevisiae cells
T2 sequence (looked up): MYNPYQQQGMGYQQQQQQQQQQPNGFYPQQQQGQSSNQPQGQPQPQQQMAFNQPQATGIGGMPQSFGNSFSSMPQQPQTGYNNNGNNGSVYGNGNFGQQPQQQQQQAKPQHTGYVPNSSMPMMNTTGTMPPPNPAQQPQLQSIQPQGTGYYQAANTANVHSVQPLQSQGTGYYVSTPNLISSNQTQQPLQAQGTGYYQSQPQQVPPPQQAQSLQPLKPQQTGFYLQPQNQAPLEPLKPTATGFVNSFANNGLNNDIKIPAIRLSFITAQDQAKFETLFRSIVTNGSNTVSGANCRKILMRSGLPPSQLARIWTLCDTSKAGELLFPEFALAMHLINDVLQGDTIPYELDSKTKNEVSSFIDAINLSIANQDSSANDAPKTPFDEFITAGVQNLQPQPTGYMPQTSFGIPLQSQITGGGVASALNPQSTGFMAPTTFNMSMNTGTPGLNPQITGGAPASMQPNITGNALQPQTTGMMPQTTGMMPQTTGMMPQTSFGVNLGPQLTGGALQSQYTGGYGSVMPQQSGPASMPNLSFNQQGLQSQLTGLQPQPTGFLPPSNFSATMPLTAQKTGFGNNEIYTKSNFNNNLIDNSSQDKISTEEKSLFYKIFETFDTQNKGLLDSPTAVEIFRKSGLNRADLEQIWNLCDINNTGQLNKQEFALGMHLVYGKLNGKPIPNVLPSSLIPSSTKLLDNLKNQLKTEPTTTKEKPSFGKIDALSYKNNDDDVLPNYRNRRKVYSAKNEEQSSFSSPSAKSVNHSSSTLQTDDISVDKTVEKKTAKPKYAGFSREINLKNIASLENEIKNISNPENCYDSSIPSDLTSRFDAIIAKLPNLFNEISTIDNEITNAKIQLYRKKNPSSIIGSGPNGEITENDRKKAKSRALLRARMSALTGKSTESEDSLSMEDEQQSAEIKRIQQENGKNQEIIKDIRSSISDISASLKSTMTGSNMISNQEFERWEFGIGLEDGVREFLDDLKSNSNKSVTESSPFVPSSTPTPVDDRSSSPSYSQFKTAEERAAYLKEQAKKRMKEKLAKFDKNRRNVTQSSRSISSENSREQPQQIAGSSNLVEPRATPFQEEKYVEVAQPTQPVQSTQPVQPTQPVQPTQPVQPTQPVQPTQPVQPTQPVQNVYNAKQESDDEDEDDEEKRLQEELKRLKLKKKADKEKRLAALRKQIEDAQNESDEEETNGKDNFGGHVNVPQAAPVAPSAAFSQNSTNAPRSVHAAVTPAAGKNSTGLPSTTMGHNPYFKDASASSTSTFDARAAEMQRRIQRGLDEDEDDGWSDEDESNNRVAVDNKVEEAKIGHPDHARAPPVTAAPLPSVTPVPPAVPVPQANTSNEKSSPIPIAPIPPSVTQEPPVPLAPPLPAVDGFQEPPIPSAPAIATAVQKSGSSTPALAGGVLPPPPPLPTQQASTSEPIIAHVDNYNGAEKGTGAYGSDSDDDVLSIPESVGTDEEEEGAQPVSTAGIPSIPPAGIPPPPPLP

B1: End3 (natural protein, S. cerevisiae, UniProt P39013 1-349, looked up)
chain: MPKLEQFEIKKYWQIFSGLKPIENKVNHDQVLPILYNSKLDSSVLNKIWFLADIDDDDNLDFEEFVICMRLIFDMVNKNISSVPDELPDWLIPGSKVNLIKERKKRKQIENADLPPKKEIKVDWYMSPDDLNQYEKIYNSCAKLTDGTITFNELSTKLSTKFFNISKTDLNKVWSLINPQNLPSIDRDPTFYFIHCLRQRNDLGAEIPASLPNSLAEVCNKKQLSYDLRSSQPPTKRKEEANEVDNLRDNGQNSSSDSSGSNVLSNEDSIKQKYASLTDDQVANMREQLEGLLNYKKSEKTQGGSKLSKRINIRSITDDLDNIEQQVEVLENYLNNKRHELQALQAEIN
notes: End3, S. cerevisiae; also called End3-3myeGFP; End3-3mCherry; source: chromosomally tagged at the endogenous locus, in the cytoplasm of living S. cerevisiae cells
For B1, the Kd [1] was 622 nM and the Kd [2] was 27 nM.
